In the RNAGym collection of RNA variant scans (doi:10.7554/elife.90254):

B1: LINE1-full (parent)
chain: UACGUAGGUGGUUUUCCCCUGAUAGUGCUAAGGGGGCCUGGAAGUUUGGACUGGGCAGAGCUCAACACAGCGUGGCAAAGUGGCUGUGGCUAGACUGCCUCUCUGGAUUCCUCGUCACUCAGCAGGGCAUCUCUGAGAGAAAUGCC

Variants of: B1
Assay: self-cleavage, relative activity (ratio to wild type); higher = more cleavage; in vitro, sequencing; the parent is a self-cleaving ribozyme

| Variant | self-cleavage |
| --- | --- |
| UACGUAGGUGGUUUUCCCCUGAUAGUGCUAAGGGGGCCUGGAUGUUUGGACUGGGCAGAGCUCAACACAGCGUGGCAAAGUGGCUGUGGCUAGACUGCCUCUCUGGAUACCUCGUCACUCAGCAGGGCAUCUCUGAGAGAAAUGCC [A43U U109A] | 1.38 |
| UACGUAGGUGGUUUUCCCCUGAUAGUGCUAAGGGGGCCUGGAUGUUUGGACUGGGCAGAGCUCAACACAGCGUGGCAAAGUGGCUGUGGCUAGACUGCCUCUCUGGAUCCCUCGUCACUCAGCAGGGCAUCUCUGAGAGAAAUGCC [A43U U109C] | 1.32 |
| UACGUAGGUGGUUUUCCCCUGAUAGUGCUAAGGGGGCCUGGAUGUUUGGACUGGGCAGAGCUCAACACAGCGUGGCAAAGUGGCUGUGGCUAGACUGCCUCUUUGGAUUCCUCGUCACUCAGCAGGGCAUCUCUGAGAGAAAUGCC [A43U C103U] | 1.09 |
| UACGUAGGUGGUUUUCCCCUGAUAGUGCUAAGGGGGCCUGGAUGUUUGGACUGGGCAGAGCUCAACACAGCGCGGCAAAGUGGCUGUGGCUAGACUGCCUCUCUGGAUUCCUCGUCACUCAGCAGGGCAUCUCUGAGAGAAAUGCC [A43U U73C] | 1.79 |
| UACGUAGGUGGUUUUCCCCUGAUAGUGCUAAGGGGGCCUGGAUGUUUGGACUGGGCAGAGCUCAACACAGCGAGGCAAAGUGGCUGUGGCUAGACUGCCUCUCUGGAUUCCUCGUCACUCAGCAGGGCAUCUCUGAGAGAAAUGCC [A43U U73A] | 0.93 |
| UACGUAGGUGGUUUUCCCCUGAUAGUGCUAAGGGGGCCUGGAUGUUUGGACUGGGCAGAGCUCAACACAGCGUGGCAAAGCGGCUGUGGCUAGACUGCCUCUCUGGAUUCCUCGUCACUCAGCAGGGCAUCUCUGAGAGAAAUGCC [A43U U81C] | 1.26 |
| UACGUAGGUGGUUUUCCCCUGAUAGUGCUAAGGGGGCCUGGAUGUUUGGACUGGGCAGAGCUCAACACAGCGUGGCAAAGUGGCUGUGGCUAGACUGCCUCUCUGGAUUCCUCGUCACUCAGCAGGGCAACUCUGAGAGAAAUGCC [A43U U130A] | 1.67 |
| UACGUAGGUGGUUUUCCCCUGAUAGUGCUAAGGGGGCCUGGAUGUUUGGACUGGGCAGAGCUCAACACAGCGUGGCAAAGUGGCUGUGGCUAGACUGCCUCUCUGGAUUCCUCGUCACUCAGCAGGGCACCUCUGAGAGAAAUGCC [A43U U130C] | 2.34 |
| UACGUAGGUGGUUUUCCCCUGAUAGUGCUAAGGGGGCCUGGAUGUAUGGACUGGGCAGAGCUCAACACAGCGUGGCAAAGUGGCUGUGGCUAGACUGCCUCUCUGGAUUCCUCGUCACUCAGCAGGGCAUCUCUGAGAGAAAUGCC [A43U U46A] | 1.24 |
| UACGUAGGUGGUUUUCCCCUGAUAGUGCUAAGGGGGCCUGGAUGUUUGGACUGGGCAGAGCUCAACACAGCAUGGCAAAGUGGCUGUGGCUAGACUGCCUCUCUGGAUUCCUCGUCACUCAGCAGGGCAUCUCUGAGAGAAAUGCC [A43U G72A] | 1.38 |
| UACGUAGGUGGUUUUCCCCUGAUAGUGCUAAGGGGGCCUGGAUGUUUGGACUGGGCAGAGCUCAACACAGCGUGGCAAAGUGGCUGUGGCUAGACUGCCUCUCAGGAUUCCUCGUCACUCAGCAGGGCAUCUCUGAGAGAAAUGCC [A43U U104A] | 0.98 |
| UACGUAGGUGGUUUUCCCCUGAUAGUGCUAAGGGGGCCUGGAUGUUUGGACUGGGCAGAGCUCAACACAGCGUGGCAAAGUGGCUGUGGCUAGACUGCCUCUCUGGAUUCCUCGUCACUCAGCAGGGCAUCUCUGAGGGAAAUGCC [A43U A138G] | 0.83 |
| UACGUAGGUGGUUUUCCCCUGAUAGUGCUAAGGGGGCCUGGAUGUUUGGACUGGGCAGAGCUCAACACAGCGUGGCAAAGUGGCUGUGGCUAGACUGCCUCUCUGGAUUCCUCGUCACUCAGCAGGGCAUCUCUGAGUGAAAUGCC [A43U A138U] | 1.14 |
| UACGUAGGUGGUUUUCCCCUGAUAGUGCUAAGGGGGCCUGGAUGUUUGGACUGGGCAGAGCUCAACACAGCGUGGCAAAGUGGCUGUGGCUAGACUGCCUCUCUGGAUUUCUCGUCACUCAGCAGGGCAUCUCUGAGAGAAAUGCC [A43U C110U] | 0.83 |
| UACGUAGGUGGUUUUCCCCUGAUAGUGCUAAGGGGGCCUGGAUGUUUGGACUGGGCAGAGCUCAACACAGCGUGGCAAAGUGGCUGUGGAUAGACUGCCUCUCUGGAUUCCUCGUCACUCAGCAGGGCAUCUCUGAGAGAAAUGCC [A43U C90A] | 0.07 |
| UACGUAGGUGGUUUUCCCCUGAUAGUGCUAAGGGGGCCUGGAUGUUUGGACUGGGCAGAGCUCAACACAGCGUGGCAAAGUGGCUGUGGCUAGACUGCCUCUCUGGAUUCCUCGUCACUCAGCAGGGCAUCUCUGAGAGAAGUGCC [A43U A142G] | 1.24 |
| UACGUAGGUGGUUUUCCCCUGAUAGUGCUAAGGGGGCCUGGAUGUUUGGACUGGGCAGAGCUCAACACAGCGUGGCAAAGUGGCUGUGGCUAGACUGCCUCUCUGGAUUCCUCGUCACUCAGCGGGGCAUCUCUGAGAGAAAUGCC [A43U A124G] | 0.71 |
| UACGUAGGUGGUUUUCCCCUGAUAGUGCUAAGGGGGCCUGGAUGUUUGGACUGGGCAGAGCUCAACACAGCGUGGCAAAGUGGCUGUGGCCAGACUGCCUCUCUGGAUUCCUCGUCACUCAGCAGGGCAUCUCUGAGAGAAAUGCC [A43U U91C] | 0.68 |
| UACGUAGGUGGUUUUCCCCUGAUAGUGCUAAGGGGGCCUGGAUGUUUGGACUGGGCAGAGCUCAACACAGCGUGGCAAAGUGGCUGUGGCUAGACUGCCUCUCUGGAUUCCUCGCCACUCAGCAGGGCAUCUCUGAGAGAAAUGCC [A43U U115C] | 1.21 |
| UACGUAGGUGGUUUUCCCCUGAUAGUGCUAAGGGGGCCUGGAUGUUUGGACUGGGCAGAGCUCAACACAGCGUGGCAAAGUGGCUGUGGCUAGACUGCCUCUCUGGAUUCCUCGUCACUCUGCAGGGCAUCUCUGAGAGAAAUGCC [A43U A121U] | 0.79 |
